Target: CmbHLH2 (Chrysanthemum morifolium)
Sequence (main, as listed by the source): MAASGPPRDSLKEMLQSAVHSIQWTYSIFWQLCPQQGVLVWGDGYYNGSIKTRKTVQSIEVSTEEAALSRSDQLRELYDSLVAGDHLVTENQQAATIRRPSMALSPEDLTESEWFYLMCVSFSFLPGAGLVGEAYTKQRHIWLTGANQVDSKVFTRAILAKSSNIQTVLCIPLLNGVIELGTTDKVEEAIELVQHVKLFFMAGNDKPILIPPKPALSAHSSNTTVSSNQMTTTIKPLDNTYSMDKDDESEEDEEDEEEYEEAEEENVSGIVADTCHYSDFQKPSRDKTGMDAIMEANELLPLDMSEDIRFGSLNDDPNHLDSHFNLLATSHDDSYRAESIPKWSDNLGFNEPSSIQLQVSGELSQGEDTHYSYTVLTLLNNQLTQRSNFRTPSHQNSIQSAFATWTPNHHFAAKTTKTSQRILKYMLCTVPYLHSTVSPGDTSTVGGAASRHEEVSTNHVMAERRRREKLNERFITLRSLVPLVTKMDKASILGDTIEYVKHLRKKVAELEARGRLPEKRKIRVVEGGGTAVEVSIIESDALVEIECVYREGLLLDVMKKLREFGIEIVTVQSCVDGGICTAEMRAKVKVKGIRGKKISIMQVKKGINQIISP

CmMYB6 (natural protein)
CmDFR promoter activity in dual luciferase assay (LUC/REN) in tobacco leaves on co-expression of CmbHLH2 with CmMYB6, relative to the empty vector set as one: > 40 fold

Reference: article PMC4664390
